Test results reported in the nanobody polyreactivity screen of Harvey et al. (2022).

Experiment: yeast display, Sf9 membrane polyspecificity reagent, FACS + sequencing; frameworks hold sequencing errors
Method in brief: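 Genes from sorted yeast were amplified by colony PCR, read by MiSeq 2 × 250 sequencing and filtered on CDR length. These cells carried a synthetic nanobody library in Saccharomyces cerevisiae BJ5465 and were sorted by FACS into low and high (top ~1%) gates on anti-HA and streptavidin fluorescence. Polyreactivity is labelled according to the gate of origin.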

| Sequence | polyreactivity (PSR sort gate) |
| --- | --- |
| QVQLVESGGGLVQAGGSLRLSCAASGSTFRINTMGWYRQAPGKERELVATITGSGGSTYYADSVKGRFTISRDNAKNTVYLQMNSLKPEDTAVYYCAAVGDQNEYDYWGQGTQVTVSS | low polyreactivity |
| QVQLVESGGGLVQAGGSLRLSCAASGSTFRIYAMGWYRQAPGKERELVAAISKRGGSTYYADSVKGRFTISRDNAKNTVYLQMNSLKPEDTAVYYCAKPPYSQYEFDYWGQGTQVTVSS | high polyreactivity |
| QVQLVESGGGLVQAGGSLRLSCAASGSTFRIYVMGWYRQAPGKEREFVAAISRGGGSTYYADSVKGRFTISRDNAKNTVYLQMNSLKPEDTAVYYCAAVTRDYGSRSGLDYWGQGTQVTVSS | high polyreactivity |
| QVQLVESGGGLVQAGGSLRLSCAASGSTFRLNAMGWYRQAPGKERELVAAITSGGSTTYADSVKGRFTISRDNAKNTVYLQMNSLKPEDTAVYYCAAANWGTPPYDYWGQGTQVTVSS | low polyreactivity |
| QVQLVESGGGLVQAGGSLRLSCAASGSTFRLYAMGWYRQAPGKERELVAAISTRGSSTYYADSVKGRFTISRDNAKNTVYLQMNSLKPEDTAVYYCAADAYFIYSRYWYDYWGQGTQVTVSS | high polyreactivity |
| QVQLVESGGGLVQAGGSLRLSCAASGSTFRNNAMGWYRQAHGKERELVAAISRGGGSTYYADSVKGRFTISRDNAKNTVYLQMNSLKPEDTAVYYCARRPTGIYDYWGQGTQVTVSS | high polyreactivity |
| QVQLVESGGGLVQAGGSLRLSCAASGSTFRNYAMGWYRQAPGKERELVATISASGGSTYYADSVKGRFTISRDNAKNTVYLQMNSLKPEDTAVYYCNAVVKLWGLVIPPGDYDYWGQGTQVTVSS | high polyreactivity |
| QVQLVESGGGLVQAGGSLRLSCAASGSTFRQNAMGWYRQAPGKERELVAAITYRVASTYYADSVKGRFTISRDNAKNTVYLQMNSLKPEDSAVYYCAAYKRRSNGRYWTYDYWGQGSQVTVSS | high polyreactivity |
| QVQLVESGGGLVQAGGSLRLSCAASGSTFRQYAMGWSRQAPGKERELVAAISSSGGSTYYADSVKGRFTISRDNAKNTVYLQMNSLKPEDTAGYYCNARLYGSASWGQPKEYDYWGQGTQVTVSS | low polyreactivity |
| QVQLVESGGGLVQAGGSLRLSCAASGSTFRQYAMGWYRQAPGKERELVAGISYRGGRTYYADSVKGRFTISRDNAKNTVYLQMNSLKPEDTAVYYCNALRHYRDISVDGDDYWGQGTQVTVSS | high polyreactivity |
| QVQLVESGGGLVQAGGSLRLSCAASGSTFRRNAMGWYRQAPGKERELVAAISGSGGSTYYADSVKGRFTISRDNAKNTVYLQMNSLKPEDTAVYYCAARVVKNYKSDSWGQGTQVTVSS | high polyreactivity |
| QVQLVESGGGLVQAGGSLRLSCAASGSTFRRNAMGWYRQAPGKERELVAAITSTDSTYYADSVKGRFTISRDNAKNTVYLQMNSLKPEDTAVYYCAKGYWWGGEMGYWGQGSQVTVSS | low polyreactivity |
| QVQLVESGGGLVQAGGSLRLSCAASGSTFRRYAMGWYRQAPGKERELVAAITTADITNYADSVKGRFTISRDNAKNTVYLQMNSLKPEDTAVYYCAAPVAYRGSRNFIYRYNYWGQGTQVTVSS | high polyreactivity |
| QVQLVESGGGLVQAGGSLRLSCAASGSTFRRYTMGWYRQAPGKERELLAAISSGGSTYYADSVKGRFTISRDNAKNTVYLQMNSLNPEDTAVYYCAAKNYPLTRYWRYDYSEYYYWGQATQVTVSS | high polyreactivity |
| QVQLVESGGGLVQAGGSLRLSCAASGSTFRRYVMGGYREAAGKERELVAAISGSSGSTYYADSVKGRFTISRDNAKNTVYLQMNSLKPEDTAVYYCAAVRATQGYRYGYWGQGTQVTVSS | high polyreactivity |
| QVQLVESGGGLVQAGGSLRLSCAASGSTFRSYAMGWYRQAPGKERELVAAISSSGSRTYYADSVKGRFTISRDNAKNTVYLQMNSLKPEDTAVYYCAADYYYNTKLDYWGQGTQVTVSS | high polyreactivity |

| Sequence | polyreactivity (PSR sort gate) |
| --- | --- |
| QVQLVESGGGLVQAGGSLRLSCAASGSTFRSYAMGWYRQAPGKERELVAAISYSGDSTYYADSVKGRFTISRDNAKNTVYLQMNSLKPEDTAVYYCAALRDWDIQGEPWKRYGYWGQGTQVTVSS | low polyreactivity |
| QVQLVESGGGLVQAGGSLRLSCAASGSTFRSYAMGWYRQAPGKERELVAVISSGDSTYYADSVKGRFTISRDNAKNTVYLQMNSLKPEDTAVYYSAADSYVLGRWYGYWGQGTQVTVSS | low polyreactivity |
| QVQLVESGGGLVQAGGSLRLSCAASGSTFRSYARGWYRQAPGKERELVAVISKRGGSTYYADSVKGRFTISRDNAKNTVYLQMNSLKPEDTAVYYCAADVYRYYAPNDYYWGQGTQVTVSS | high polyreactivity |
| QVQLVESGGGLVQAGGSLRLSCAASGSTFRSYGMGWYRQAPRKERELVAGISVSGGRTSYADSVKGRFTISRDNAKNTVYLQMNSLKPEDTAVYYCAARRSKVGYHRDYYWGQGTQVTVSS | high polyreactivity |
| QVQLVESGGGLVQAGGSLRLSCAASGSTFRSYVMGWYRQAPGKERELGAGISYRGGTTYYADSVKGRFTISRDNAKNTVYLQMNSLKPEDTAVYNCAADSTPYVLSGNYDYWGQGTQVTVSS | low polyreactivity |
| QVQLVESGGGLVQAGGSLRLSCAASGSTFRTYAMGWYRQAPGKERDLVASIDSTGSTNYADSVKGRFTISRDNAKNTVYLQMNSLKPEDTAVYYCAAETYSDPPFYAYDYWGQGTQVTVSS | low polyreactivity |
| QVQLVESGGGLVQAGGSLRLSCAASGSTFRTYAMGWYRQAPGKERELVAAISFNGTRTYYADSVKGRFTISRDNAKNTVYLQMNSLKPEDTAVYYCAARGRGSFHQKGYYYWGQGTQVTVSS | high polyreactivity |
| QVQLVESGGGLVQAGGSLRLSCAASGSTFRVNAMGWYRQAPGKERELVAAISYRGGSTYYADSVKGRFTISRDNAKNTVYLQMINLKPEDTAVYYCNADLKRRTYGPDSYYWGQGTQVTVSS | high polyreactivity |
| QVQLVESGGGLVQAGGSLRLSCAASGSTFRVNAMGWYRQEPGKEREFVDAITWSTGSTYYADSVKGRFTISRDYAMNTVYLQMNSLKPEDTAVYYCAAREQTYSQRGKKLYYFWGQGTQVTVST | high polyreactivity |
| QVQLVESGGGLVQAGGSLRLSCAASGSTFRVNARGWYRQAPGKERELVAAISFSAGGTYYADSVKGRFTISRDNAKNTVYLQMNSLKPEDTAVYYCAADFYYYDYWGQCTQVTVSS | low polyreactivity |
| QVQLVESGGGLVQAGGSLRLSCAASGSTFRVYAMGWYRQAPGKEREFVAAITGSDGSTYYADSVKGRFTISRDNAKNTVYLQMNSLKPEDTAVYYCAADYYLQNYETGYGYWGQGTQVTVSS | low polyreactivity |
| QVQLVESGGGLVQAGGSLRLSCAASGSTFRVYAMGWYRQAPGKERELVAGITQTSGRTYYADSVKGRFTISRDNAKNTVYLQMNSLKPEDTAVYYCARESYSSYFHYYYWGQGTQVTVSS | high polyreactivity |
| QVQLVESGGGLVQAGGSLRLSCAASGSTFRVYDMGWYRQAPGKERELVASISYSVGSTYYADSVKGRFTISRDNAKNTVYLQMNSLKPEDTAVYYCAARPSYQPSSLARYDYWGQGTQVTVSS | low polyreactivity |
| QVQLVESGGGLVQAGGSLRLSCAASGSTFRWNAMGWYRQAPGKERELDAAINSGGSTNYADSVKGRFTISRDNAKNTVYLQMNSLKPEDTAVYYCATRYDVSYIKFDYWGQGTQVTVSS | high polyreactivity |
| QVQLVESGGGLVQAGGSLRLSCAASGSTFRWYAMGWYRQAPGKERELVAAISRSGGNTYYADSVKGRFTISRDNAKNTVYLQMNSLKPEDTAVYYCAARKLYGSPEHGYWGQGTQVTVSS | high polyreactivity |
